1 substance from PMC11239689 can be followed below.

The target in this assay is Toll-like receptor 2 (TLR2), endogenous in HT29 cells (human (endogenous in HT29)) (UniProt O60603).
Sequence of UniProt O60603 (O60603 21-784): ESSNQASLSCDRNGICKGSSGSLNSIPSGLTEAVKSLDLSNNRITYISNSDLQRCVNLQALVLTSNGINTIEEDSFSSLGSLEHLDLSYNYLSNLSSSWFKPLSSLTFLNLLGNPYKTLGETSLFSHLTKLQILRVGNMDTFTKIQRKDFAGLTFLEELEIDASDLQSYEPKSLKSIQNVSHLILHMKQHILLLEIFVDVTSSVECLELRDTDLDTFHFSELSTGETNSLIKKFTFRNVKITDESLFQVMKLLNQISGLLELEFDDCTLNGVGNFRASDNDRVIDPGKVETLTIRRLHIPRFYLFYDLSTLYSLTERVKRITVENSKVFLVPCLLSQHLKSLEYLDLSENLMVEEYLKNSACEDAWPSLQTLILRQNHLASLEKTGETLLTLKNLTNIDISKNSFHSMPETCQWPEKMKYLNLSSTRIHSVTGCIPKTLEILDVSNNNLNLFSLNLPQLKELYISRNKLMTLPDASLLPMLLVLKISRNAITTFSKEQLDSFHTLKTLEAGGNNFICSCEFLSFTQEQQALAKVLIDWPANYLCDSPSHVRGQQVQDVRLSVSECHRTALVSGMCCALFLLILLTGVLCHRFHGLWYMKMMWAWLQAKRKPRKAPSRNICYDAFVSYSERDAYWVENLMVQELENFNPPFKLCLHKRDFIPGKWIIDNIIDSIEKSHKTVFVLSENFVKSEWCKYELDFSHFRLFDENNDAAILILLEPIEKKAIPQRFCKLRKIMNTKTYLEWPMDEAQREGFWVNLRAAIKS

As to “GbpA domain 4, purified recombinant (domain or fragment)”, the IL-8 secreted by HT29 cells treated with 250 ng GbpA 4 for 8 h (sandwich ELISA) is 443 pg/mL.
